Where a chain is given by its changes, count along the chain named. Numbers in names are those of the source.
B1: rHCII-CHis5 Pro: Recombinant HCII mutant with a His5 Pro carboxyl-terminal tag; SEQ ID NO:7 (protein)
chain: MKHSLNALLIFLIITSAWGGSKGPLDQLEKGGETAQSADPQWEQLNNKNLSMPLLPADFHKENTVTNDWIPEGEEDDDYLDLEKIFSEDDDYIDIVDSLSVSPTDSDVSAGNILQLFHGKSRIQRLNILNAKFAFNLYRVLKDQVNTFDNIFIAPVGISTAMGMISLGLKGETHEQVHSILHFKDFVNASSKYEITTIHNLFRKLTHRLFRRNFGYTLRSVNDLYIQKQFPILLDFRTKVREYYFAEAQIADFSDPAFISKTNNHIMKLTKGLIKDALENIDPATQMMILNCIYFKGSWVNKFPVEMTHNHNFRLNEREVVKVSMMQTKGNFLAANDQELDCDILQLEYVGGISMLIVVPHKMSGMKTLEAQLTPRVVERWQKSMTNRTREVLLPKFKLEKNYNLVESLKLMGIRMLFDKNGNMAGISDQRIAIDLFKHQGTITVNEEGTQATTVTTVGFMPLSTQVRFTVDRPFLFLIYEHRTSCLLFMGRVANPSRSHHHHHP
modifications: His5 Pro C-terminal tag
B2: wt-rHCII: Human wild type recombinant heparin cofactor II expressed in the baculovirus expression system (protein, UniProt P05546 20-499, looked up)
Heparin cofactor 2: GSKGPLDQLEKGGETAQSADPQWEQLNNKNLSMPLLPADFHKENTVTNDWIPEGEEDDDYLDLEKIFSEDDDYIDIVDSLSVSPTDSDVSAGNILQLFHGKSRIQRLNILNAKFAFNLYRVLKDQVNTFDNIFIAPVGISTAMGMISLGLKGETHEQVHSILHFKDFVNASSKYEITTIHNLFRKLTHRLFRRNFGYTLRSVNDLYIQKQFPILLDFKTKVREYYFAEAQIADFSDPAFISKTNNHIMKLTKGLIKDALENIDPATQMMILNCIYFKGSWVNKFPVEMTHNHNFRLNEREVVKVSMMQTKGNFLAANDQELDCDILQLEYVGGISMLIVVPHKMSGMKTLEAQLTPRVVERWQKSMTNRTREVLLPKFKLEKNYNLVESLKLMGIRMLFDKNGNMAGISDQRIAIDLFKHQGTITVNEEGTQATTVTTVGFMPLSTQVRFTVDRPFLFLIYEHRTSCLLFMGRVANPSRS
B3: rHCII-L444R-CHis6: HCII mutant that contains both L444R and a hexahistidine carboxyl tag (protein, UniProt P05546 20-499, looked up, variant L444R)
Heparin cofactor 2: B2 Heparin cofactor 2 with L444R
modifications: C-terminal His6 tag

Key:
[1] = system: plasma-purified α-thrombin; assay: Thrombin inhibition with heparin before and after carboxypeptidase A digest; type: biochemical, human; settings: 2 hr, room temperature, FIG. 3
Procedure: Forty ng of CPA was combined with approximately 1 μg of recombinant protein and incubated at room temperature. Following a 2-hr incubation at room temperature, 2 mM EDTA was added to quench CPA activity. Controls were run in which EDTA was added to the reaction prior to the addition of CPA. CPA digested proteins were then assayed according to previously mentioned procedures.

thrombin [2] = assay: Thrombin inhibition in the absence of glycosaminoglycan; type: biochemical, human
Procedure: All assays were performed at room temperature in 96-well microtiter plates previously coated with 2 mg/mL BSA.
(§1) Residual thrombin activity was measured with 150 μM GlyProArg-NA and 1 mg/mL pB in the absence of glycosaminoglycan, 2 mg/mL pB in the presence of heparin and 4 mg/mL in the presence of dermatan sulfate. Residual factor Xa activity was measured with 500 μM Spectrozyme FXa and 2mg/mL pB in the presence or absence of glycosaminoglycan. Residual chymotrypsin activity was measured with 150 μM AlaAlaProPhe-NA and residual trypsin activity was measured with 150 μM GlyProArg-NA.
(§2) Assays were performed at least in triplicate on two or more recombinant protein preparations.

[3] = molecular target: T1, plasma purified α-thrombin (Homo sapiens, UniProt P00734); assay: Thrombin inhibition in the presence of glycosaminoglycans (heparin or dermatan sulfate); type: biochemical; settings: for maximal rate of thrombin inhibition in the presence of heparin: heparin at optimal concentration; for maximal rate of thrombin inhibition in the presence of dermatan sulfate: dermatan sulfate at optimal concentration
T1 construct: Human α-thrombin, HCII, and ATIII were purified in our laboratory from plasma; from tissue; host or cells: human plasma (purified in the authors' laboratory)
Procedure: (§3) Protease inhibition rates were determined as described previously (Rogers, S. J., Pratt, C. W., Whinna, H. C., and Church, F. C. (1992) J. Biol. Chem. 267(6), 3613-3617; Whinna, H. C., Choi, H. U., Rosenberg, L. C., and Church, F. C. (1993) J. Biol. Chem. 268, 3920-3924; Ciaccia, A. V., Cunningham, E. L., and Church, F. C. (1995) Protein Express. Purific. 6, 806-812; Ciaccia, A. V., Willemze, A. J., and Church, F. C. (1997) J. Biol. Chem. 272(2), 888-893). All assays were performed at room temperature in 96-well microtiter plates previously coated with 2 mg/mL BSA.
In the presence of glycosaminoglycans, 5 nM rHCII (wt, CHis6, CHis5 Pro, L444R, or L444R-CHis6) was incubated with 0.5 nM thrombin and 0-1 mg/mL heparin or 0-4 mg/mL dermatan sulfate or 10 nM rATIII (wt or CHis6) was incubated with 1 nM thrombin or factor Xa and 0-1 mg/mL heparin in the presence of 2 mg/mL BSA in HNPN, pH 7.4.
as §1, with “GlyProArg-NA. Substrate cleavage was measured by color development at […] on a Vmax Kinetic Microplate Reader (Molecular Devices).” for “GlyProArg-NA.”
(§4) Assays were performed at least in triplicate on two or more recombinant protein preparations. All inhibition studies were measured under pseudo-first order conditions where inhibitor [I] is at least ten-fold higher than enzyme (protease) [E], and second-order rate constants were calculated as described previously (Ciaccia, A. V., Cunningham, E. L., and Church, F. C. (1995) Protein Express. Purific. 6, 806-812; Ciaccia, A. V., Willemze, A. J., and Church, F. C. (1997) J. Biol. Chem. 272(2), 888-893).

thrombin [4] = assay: Plasma-based thrombin inhibition assay; type: biochemical, human; settings: 10 nM serpin
Procedure: The assay to evaluate rHCII (wt and rHCII-CHis6) in plasma was designed based on previously published methods (Tollefsen, D. M., and Pestka, C. A. (1985) Blood 66(4), 769-774; Griffith, M. J., Carraway, T., White, G. C., and Dombrose, F. A. (1983) Blood 61(1), 111-118). All assays were performed at room temperature in 96-well microtiter plates previously coated with 2 mg/mL BSA. This assay was performed using normal hemostasis reference plasma (REF), human antithrombin III-deficient plasma (DEF), or a 50:50 mixture of these plasmas (REF/DEF). Within the assay, 10 nM rHCII or rHCII-CHis6 was incubated for 15 sec with I nM thrombin and 1 μg/mL heparin or 50 μg/mL dermatan sulfate, in the presence of a 1:100 dilution of plasma. Residual thrombin activity was measured with 300 μM GPA and 2 mg/mL pB. Substrate cleavage was measured by color development at […] on a Vmax Kinetic Microplate Reader. Second order rate constants were measured at least in triplicate on two recombinant protein preparations as described in Example 4.

[5] = Heparin-Sepharose affinity chromatography; type: binding; settings: NaCl gradient, 20 mM Hepes pH 7.4
Procedure: 100 μL of each fraction was aliquoted onto a 96-well microtiter plate and ELISA was performed. The peak elution ionic strength was determined by plotting 405 nm color development and NaCl concentration against the fraction number. All samples were run at least in triplicate using two or more protein preparations. Recombinant ATIII samples were run similarly to the HCII samples, except the elution gradient was run from 50 mM to 2 M NaCl.

α-thrombin = molecular target: T2, α-thrombin (Homo sapiens, UniProt P00734); assay: Effect of hirugen on thrombin inhibition in the absence of glycosaminoglycan; type: biochemical; settings: for rate constant of inhibition (k2) in the absence of peptide: no hirugen, no control peptide, FIG. 5
T2 construct: Human α-thrombin, HCII, and ATIII were purified in our laboratory from plasma; from tissue; host or cells: human plasma (purified in the authors' laboratory)
Procedure: as §1, §2

chymotrypsin = assay: Chymotrypsin inhibition in the absence of glycosaminoglycan; type: biochemical; settings: pH 7.4, mean ± S.D.
Procedure: as §3
In the absence of glycosaminoglycan, 50-100 nM rHCII (wt, CHis6, CHis5 Pro, L444R, or L444R-CHis6) or rATIII (wt or CHis6) was incubated with 1 nM thrombin, 0.5 nM Factor Xa, 2 nM chymotrypsin, or 5 nM trypsin, in the presence of 1 mg/mL Polybrene (pB) (for thrombin and Factor Xa) and 2 mg/mL BSA in HNPN, pH 7.4.
as §1, with “GlyProArg-NA. Substrate cleavage was measured by color development at […] on a Vmax Kinetic Microplate Reader (Molecular Devices).” for “GlyProArg-NA.”
as §4

[6] = hirugen 20 μM, absence of glycosaminoglycan

Molecule | change of heparin-dependent thrombin inhibition after CPA digest, in words [1] | rate of thrombin inhibition in the absence of glycosaminoglycan (thrombin [2]) | heparin concentration at maximal rate of thrombin inhibition [3] | maximal rate of thrombin inhibition in the presence of heparin [3] | Heparin-Sepharose [NaCl], peak elution concentration [5] [mM] | rate constant of inhibition (k2) in the absence of peptide (α-thrombin) [M⁻¹ s⁻¹] | dermatan sulfate concentration at maximal rate of thrombin inhibition [3] | maximal rate of thrombin inhibition in the presence of dermatan sulfate [3] | further results
B1 | does not change appreciably | 32000 M⁻¹ min⁻¹ | 10 µg/mL | 1.87±0.37×10^9 M^-1 min^-1 | – | – | – | – | rate of thrombin inhibition relative to wt-rHCII (thrombin [2]): ~ 2 fold
B2 | do not drastically change | – | 50 to 100 µg/mL | 9.29±2.8×10^8 M^-1 min^-1 | 350 | 253 | approximately 500 μg/mL | 1.52±0.31×10^9 M^-1 min^-1 | Inhibition Rate k2 × 10^8 (M^-1 min^-1), thrombin in plasma (thrombin [4]; Dermatan Sulfate (50 μg/mL), 50:50 Mixture (REF/DEF) plasma 1:100): 5.8 ± .24 × 10^8 (M^-1 min^-1); Inhibition Rate k2 × 10^8 (M^-1 min^-1), thrombin in plasma (thrombin [4]; Dermatan Sulfate (50 μg/mL), ATIII Deficient (DEF) plasma 1:100): 6.5 ± .50 × 10^8 (M^-1 min^-1); Inhibition Rate k2 × 10^8 (M^-1 min^-1), thrombin in plasma (thrombin [4]; Dermatan Sulfate (50 μg/mL), Normal Reference (REF) plasma 1:100): 5.7 ± .45 × 10^8 (M^-1 min^-1); Inhibition Rate k2 × 10^8 (M^-1 min^-1), thrombin in plasma (thrombin [4]; Heparin (1 μg/mL), 50:50 Mixture (REF/DEF) plasma 1:100): 1.9 ± .050 × 10^8 (M^-1 min^-1); Inhibition Rate k2 × 10^8 (M^-1 min^-1), thrombin in plasma (thrombin [4]; Heparin (1 μg/mL), ATIII Deficient (DEF) plasma 1:100): .26 ± .050 × 10^8 (M^-1 min^-1); Inhibition Rate k2 × 10^8 (M^-1 min^-1), thrombin in plasma (thrombin [4]; Heparin (1 μg/mL), Normal Reference (REF) plasma 1:100): 22 ± .17 × 10^8 (M^-1 min^-1); k2 × 10^4 (M^-1 min^-1), thrombin (thrombin [2]; pH 7.4, mean ± S.D.): 1.30 ± .19 × 10^4 (M^-1 min^-1); reduction of rate of thrombin inhibition by hirugen (α-thrombin; [6]): > 50%; k2 × 10^4 (M^-1 min^-1), chymotrypsin (chymotrypsin): 71.0 ± 12 × 10^4 (M^-1 min^-1); average dermatan sulfate concentration at which the maximal rate was measured (in parentheses), thrombin ([3]; Thrombin + dermatan sulfate, unit not printed in table (text b157: μg/mL)): 500; average heparin concentration at which the maximal rate was measured (in parentheses), thrombin ([3]; Thrombin + heparin, unit not printed in table (text b156: μg/mL)): 50; Inhibition Rate k2 × 10^8 (M^-1 min^-1), Thrombin + dermatan sulfate ([3]; maximal rate of dermatan sulfate curve, mean ± S.D.): 15.2 ± 3.1 × 10^8 (M^-1 min^-1); Inhibition Rate k2 × 10^8 (M^-1 min^-1), Thrombin + heparin ([3]; maximal rate of heparin curve, mean ± S.D.): 9.29 ± 2.8 × 10^8 (M^-1 min^-1)
B3 | – | 1.59±0.26×10^6 M^-1 min^-1 | ~ 20 μg/mL | 2.47±0.35×10^8 M^-1 min^-1 | 600 | 35300 | ~ 200 μg/mL | 8.81±0.20×10^8 M^-1 min^-1 | rate of thrombin inhibition relative to rHCII-CHis6 (thrombin [2]): ~ 100 fold; rate of thrombin inhibition compared in words with the untagged serpin (thrombin [2]; comparator rHCII-L444R or wt-rATIII as in sentence): not significantly different; effect of hirugen on thrombin inhibition, in words (α-thrombin; [6]): less of an effect

Reference: patent US6207419A, “Thrombin inhibitory agents and methods of using same” (The University of North Carolina at Chapel Hill, priority 1999, dated 2001)
